Assay results published in the supplement of paper PMC11865577.

How the values were obtained:
Test in all cases: pull-down binding Z-score (relative to library population); higher = stronger binding
[1] = tested on: TO-3-N3 (biotin conjugate); settings: RNA library: Library-2
In short: (§1)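 Binding is given as a Z-score against the library mean and standard deviation, calculated after removing the beads-only signal and averaging barcoded replicate probes without their highest and lowest values. Cy5- or Cy3-end-labelled RNA library (1 μg) was heat-folded in phosphate/NaCl/KCl buffer and incubated 60 min at 25 °C with streptavidin beads bearing 100 pmol of biotin-conjugated small molecule. After three washes, RNA eluted in hot SDS was hybridised to a DNA barcode microarray for 20 h at 55.5 °C.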

[2] = tested on: TO-3-N3-2 (biotin conjugate); settings: RNA library: Library-2
In short: as §1

[3] = tested on: G-clamp-N3 (biotin conjugate); settings: RNA library: Library-1 (pre-miRNA loops + repeats)
In short: as §1

[4] = tested on: TO-N3-2 (biotin conjugate); settings: RNA library: Library-2
In short: as §1

TO-N3 (biotin conjugate) = settings: RNA library: Library-2
In short: as §1

| Sequence | pull-down binding Z-score [1] | pull-down binding Z-score [2] | pull-down binding Z-score [3] | pull-down binding Z-score [4] | pull-down binding Z-score (TO-N3 (biotin conjugate)) |
| --- | --- | --- | --- | --- | --- |
| CGCUGAUGUGCAUUCAACUCAUUCUCAGCA [hsa-mir-1468] | -0.116 | -0.226 | -1.2 | 0.000597 | 0.0154 |
| CGCUGCCUGGAAUUAACCCCGCUGUG [hsa-mir-636] | 0.493 | -0.249 | -1.15 | 0.891 | 0.517 |
| CGCUGCUGGCUGCCUUCCAGCG [hsa-mir-4533] | 0.221 | -0.568 | 0.074 | 0.26 | 0.079 |
| CGGAAUUCUCCAGAGCCUCUG [hsa-mir-6889] | 0.188 | 0.0162 | -0.773 | 0.584 | 0.453 |
| CGGACACCCGGCCUCCACUUUCUGUGGCAGGUACCUCCUCCA [hsa-mir-4505] | 0.675 | 0.209 | 0.149 | 1.47 | 1.05 |
| CGGACGUUGCUCUCUACCCCG [hsa-mir-1247] | 0.389 | 0.262 | -0.101 | 1.03 | 0.839 |
| CGGAGCAGUCACGUUGACGGAAUCCUCCG [hsa-mir-3183] | 0.234 | -0.255 | 0.489 | 0.498 | 0.329 |
| CGGAGCCUCGCAGGGUCGGGCUCGGGCUCCCUAACCGUCUCCGCUUCUUC [hsa-mir-6084] | 0.896 | 0.558 | -0.288 | 1.77 | 1.36 |
| CGGAUCUCGAGGGUGCUUAUUGUUCGGUCCG [hsa-mir-615] | 0.418 | 0.219 | 1.11 | 0.351 | 0.185 |
| CGGCGGCGGCGGCGGCGGCGGCGGCGGCGGCGGCGGCGGCGGCGGCGG [G4_r(CGG)16] | 8.23 | 9.63 | -0.145 | 5.03 | 6.82 |
| CGGGAACCUGCCUCCCG [hsa-mir-596] | 0.264 | -0.195 | -0.566 | -0.232 | 0.0562 |
| CGGGCCCCUCCCCUCAAUGGGCCCG [hsa-mir-5685] | -0.255 | -0.162 | 0.108 | -0.886 | -0.493 |
| CGGGCUGAUUGCGCUAACAGUGGCCCC [hsa-mir-4783] | -0.256 | -0.117 | -0.491 | 1.12 | 0.248 |
| CGGGGCGGACGCAGAGCCGCGUUUAGUCUAUCG [hsa-mir-639] | 0.0365 | -0.137 | -0.413 | 1.12 | 0.593 |
| CGGGGGGGGCCCGGGGACGGCUUGGGCCUGCCUAGUCGG [hsa-mir-1234] | 2.08 | 1.32 | 1.65 | 2.4 | 2.73 |
| CGGUACCCACUGCUGAGGGUGGGGACCA [hsa-mir-3691] | 0.628 | -0.291 | -0.0994 | 0.687 | 0.55 |
| CGGUCCCAUAUUGAACUCG [hsa-mir-4444-1_4444-2] | -0.626 | -0.418 | -1.03 | -0.109 | -0.4 |
| CGGUCGGAUAAUCACAUGACGAG [hsa-mir-2114] | -0.513 | -0.221 | 0.425 | 0.592 | -0.0316 |

| Sequence | pull-down binding Z-score [1] | pull-down binding Z-score [2] | pull-down binding Z-score [3] | pull-down binding Z-score [4] | pull-down binding Z-score (TO-N3 (biotin conjugate)) |
| --- | --- | --- | --- | --- | --- |
| CGGUGGUCCCUCCCG [hsa-mir-3687-1_3687-2] | 0.0703 | -0.108 | -0.273 | 0.832 | 0.14 |
| CGGUGUGCAAAUGUGUGUGUGCGGUGUUAUGCCG [hsa-mir-4442] | -0.732 | -0.663 | -0.0251 | -0.316 | -0.869 |
| CGUACGCUUUAUCUGUGACGUAUG [hsa-mir-411] | -0.61 | -0.338 | 0.625 | -0.0511 | -0.611 |
| CGUAGGCGUUAUGAUUUCUGACCUAUG [hsa-mir-379] | -0.513 | -0.261 | -0.994 | 0.473 | 0.0365 |
| CGUAUGUGUAUAUAAAUGUAUACG [hsa-mir-1277] | -0.965 | -0.547 | 0.912 | -1.36 | -1.29 |
| CGUGCAAGUUUAAGUUUUUGCACG [hsa-mir-4445] | 0.314 | -0.0878 | 0.55 | -0.688 | 0.282 |
| CGUGCACGUACCUGUCACAUGUGUACG [hsa-mir-3939] | -0.72 | -0.599 | -0.021 | -0.599 | -0.867 |
| CGUGCGCCAGUGGAG [hsa-mir-6089-2_6089-1] | 0.0799 | -0.139 | -0.0599 | 0.982 | 0.573 |
| CGUGCUCAGCUUGGCACCCAAGUUCUGC [hsa-mir-7704] | -0.129 | -0.12 | -0.0193 | 1.39 | 0.485 |
| CGUUCCAAUGCGACACCUCUAGAGUGUCAUCCCCUAGAAUGUCACCUUGGAAAG [hsa-mir-4432] | -0.119 | -0.104 | -1.26 | -0.0713 | -0.0844 |
| CGUUCGCUUUAUUUAUGGCGCACA [hsa-mir-323a] | -0.155 | -0.271 | -0.817 | 0.118 | -0.267 |
| CGUUGAGUGGGCACCCGAGAAGCCAUCG [hsa-mir-425] | 0.0191 | 0.25 | -0.628 | 1.51 | 0.583 |
| CGUUUAGUAGAUGAUUGUGCAUUGUUUCAAAAUG [hsa-mir-224] | -0.714 | -0.358 | -0.24 | -0.183 | -0.502 |
| CUAAAUGGUACCCACUUUAUUUAG [hsa-mir-5687] | -0.627 | -0.0559 | -0.726 | -0.639 | -0.76 |
| CUAACAGGCCCCUGUCACCAUUAG [hsa-mir-5579] | -0.463 | -0.144 | -0.762 | 0.236 | -0.073 |
| CUAAGCUAUGGACUGCUAUGGACUGCUAG [hsa-mir-4473] | -0.193 | 0.196 | -0.249 | 0.578 | 0.172 |
| CUAAUCUCUUAGCACUGAAGAUUAG [hsa-mir-4671] | 0.0266 | -0.253 | -0.0111 | -0.473 | -0.125 |
| CUACAUCGUGGAAGCCAGCACCAUGCAG [hsa-mir-455] | 0.731 | -0.206 | 0.169 | 0.773 | 0.826 |
